From patent publication US20180201649A1 (YALE UNIVERSITY, published 2018)

Target: T1, endothelial nitric oxide synthase (eNOS) (bovine (endogenous in BAEC), UniProt P29473 2-1205)
T1 sequence (looked up): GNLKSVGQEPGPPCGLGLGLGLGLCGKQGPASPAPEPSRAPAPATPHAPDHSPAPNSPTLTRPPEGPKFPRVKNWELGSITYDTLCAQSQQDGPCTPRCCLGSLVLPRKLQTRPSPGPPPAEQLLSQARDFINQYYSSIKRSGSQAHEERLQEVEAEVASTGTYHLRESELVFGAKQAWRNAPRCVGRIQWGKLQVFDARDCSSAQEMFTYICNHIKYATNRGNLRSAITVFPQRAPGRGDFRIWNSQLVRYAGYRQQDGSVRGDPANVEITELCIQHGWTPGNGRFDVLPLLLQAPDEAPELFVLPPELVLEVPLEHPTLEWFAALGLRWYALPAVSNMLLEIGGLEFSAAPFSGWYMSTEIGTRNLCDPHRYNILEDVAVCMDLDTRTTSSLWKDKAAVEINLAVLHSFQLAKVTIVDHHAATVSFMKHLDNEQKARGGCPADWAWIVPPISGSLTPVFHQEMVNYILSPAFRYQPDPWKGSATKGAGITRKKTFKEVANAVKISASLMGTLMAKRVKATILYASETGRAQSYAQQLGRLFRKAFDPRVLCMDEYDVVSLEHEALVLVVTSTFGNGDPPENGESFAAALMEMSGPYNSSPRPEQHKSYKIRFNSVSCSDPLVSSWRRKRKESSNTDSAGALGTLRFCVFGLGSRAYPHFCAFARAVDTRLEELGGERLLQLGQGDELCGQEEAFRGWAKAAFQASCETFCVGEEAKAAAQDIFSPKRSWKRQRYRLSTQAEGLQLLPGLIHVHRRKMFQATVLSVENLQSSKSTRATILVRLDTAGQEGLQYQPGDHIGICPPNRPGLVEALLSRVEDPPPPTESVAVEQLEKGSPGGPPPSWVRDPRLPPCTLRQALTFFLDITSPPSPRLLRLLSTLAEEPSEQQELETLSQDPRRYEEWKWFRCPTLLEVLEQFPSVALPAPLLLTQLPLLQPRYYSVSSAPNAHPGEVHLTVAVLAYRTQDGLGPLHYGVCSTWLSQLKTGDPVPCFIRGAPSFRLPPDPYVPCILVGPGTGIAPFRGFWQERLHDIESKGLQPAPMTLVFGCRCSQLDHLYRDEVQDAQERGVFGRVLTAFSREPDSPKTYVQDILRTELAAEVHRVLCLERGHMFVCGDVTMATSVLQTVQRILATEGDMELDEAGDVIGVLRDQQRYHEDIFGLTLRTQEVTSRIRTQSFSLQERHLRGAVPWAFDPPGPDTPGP
Test: cell-based or functional assay

Binder	EC50 of inhibition of VEGF-induced NO release in BAEC [µM]
RQIKIWFQNRRMKWKKDGIWKASFTTFTVTKYWFYR [AP-Cav]	1.8
RRPPRDGIWKASFTTFTVTKYWFYR [Endo5-Cav]	7.5
